According to US20240218065A1 (SHENGHE CHINA BIOPHARMACEUTICAL, published 2024):
Where two headings read alike, the source gives them in different places.

Legend:
Human-GPC3-His [1] = target: T1, Human-GPC3-His (human, UniProt P51654 25-559, limits assumed); test: ELISA: Human-GPC3-His coated at 0.5 µg/mL, antibody titrated 3-fold from 10 µg/mL, HRP goat anti-human IgG-Fc, OD450-OD570
T1 construct: Coated on the ELISA plate; also called GPC-3 protein; GPC3 protein; not shown: His tag
Description: (§1) Human-GPC3-His was diluted to 0.5 μg/mL with PBS buffer at pH 7.4, added into the 96-well ELISA plate at 100 μL per well, coated overnight at 4° C., and blocked with 1% BSA blocking solution for 1 hour. The plate was washed 3 times with PBST, and the constructed antibody was diluted to 10 μg/mL with 0.5% BSA sample diluent as the starting concentration, and then diluted by 3-fold gradient (11 gradients in total) and incubated at 37° C. for 1 h at 100 μL per well. The plate was washed 3 times with PBST, and then HRP-labelled goat anti-human IgG-Fc was diluted with the sample diluent at 1:20000. 100 μL was added into each well, and incubated at room temperature for 1 hour. A negative control (blank well and IgG1 isotype control) and a positive control were set, and the positive control was a GPC-3 and CD3 bispecial antibody from the literature Hs, A, et al. “Engineering a bispecific antibody with a common light chain: Identification and optimization of an anti-CD3 epsilon and anti-GPC3 bispecific antibody, ERY974.” Methods 154 (2019): 10-20. (The GPC-3 and CD3 bispecial antibody sequence consists of SEQ ID No. 22, SEQ ID No. 23, and SEQ ID No. 24). The plate was washed 4 times with PBST, and 100 μL of TMB substrate was added into each well, and incubated at room temperature without light for 10 minutes. 100 μL of 1 M HCl solution was added into each well to terminate the color development reaction. The absorbance value of each well in the 96-well plate was determined by selecting the wavelength of 450 nm and the reference wavelength of 570 nm on a multifunctional enzyme marker, and the absorbance value (OD)=OD₄₅₀ₙₘ−OD₅₇₀ₙₘ. The logarithm of the concentration of the constructed antibody was taken as the abscissa, and the measured absorbance value of each well was taken as the ordinate, and the Sigmoidaldose-response (Variable Slope) method (GraphPad Prism software, GraphPad Software, San Diego, California) was selected for nonlinear regression to obtain the binding curve of the target antibody to the GPC-3 protein.

Human-GPC3-His [2] = target: T1, Human-GPC3-His; test: as above; remark: listed apart in the source
Description: as §1

Human-GPC3-His [3] = target: T1, Human-GPC3-His; test: as above; remark: listed apart in the source
Description: as §1

[4] = target: T2, Human-NKP30-His (Kactus, cat: NKP-HM430) (human, UniProt O14931 19-138, limits assumed); test: ELISA: Human-NKP30-His coated, antibody titrated 3-fold from 10 µg/mL, HRP goat anti-human IgG-Fc, OD450-OD570
T2 construct: also called NKP30 protein; NKP30-his protein; not shown: His tag
T2 sequence (looked up): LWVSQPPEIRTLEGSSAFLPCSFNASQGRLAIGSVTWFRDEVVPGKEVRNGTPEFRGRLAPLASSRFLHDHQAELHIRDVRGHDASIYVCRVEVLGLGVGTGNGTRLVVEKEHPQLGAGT
Description: Human-NKP30-His (Kactus, cat: NKP-HM430) was diluted to […] with PBS buffer at pH 7.4, added into the 96-well ELISA plate at 100 μL per well, coated overnight at 4° C., and blocked with 1% BSA blocking solution for 1 hour. The plate was washed 3 times with PBST, and the constructed antibodies were diluted to 10 μg/mL with 0.5% BSA sample diluent as the starting concentration, and then diluted by 3-fold gradient (11 gradients in total). A negative control (blank well and IgG1 isotype control) and a positive control were set, and the positive control was a NKP30 humanized antibody (sequence shown in SEQ ID No. 28), and incubated at 37° C. for 1 h at 100 μL per well. The plate was washed 3 times with PBST, and then HRP-labelled goat anti-human IgG-Fc was diluted with the sample diluent at 1:20000. 100 μL was added into each well, and incubated at room temperature for 1 hour. The plate was washed 4 times with PBST, and 100 μL of TMB substrate was added into each well, and incubated at room temperature without light for 10 minutes. 100 μL of 1 M HCl solution was added into each well to terminate the color development reaction. The absorbance value of each well in the 96-well plate was determined by selecting the wavelength of 450 nm and the reference wavelength of 570 nm on a multifunctional enzyme marker, and the absorbance value (OD)=OD₄₅₀ₙₘ−OD₅₇₀ₙₘ. The logarithm of the concentration of the constructed antibody was taken as the abscissa, and the measured absorbance value of each well was taken as the ordinate, and the Sigmoidaldose-response (Variable Slope) method (GraphPad Prism software, GraphPad Software, San Diego, California) was selected for nonlinear regression to obtain the binding curve of the target antibody to NKP30.

T1 sequence (P51654 25-559 limits assumed): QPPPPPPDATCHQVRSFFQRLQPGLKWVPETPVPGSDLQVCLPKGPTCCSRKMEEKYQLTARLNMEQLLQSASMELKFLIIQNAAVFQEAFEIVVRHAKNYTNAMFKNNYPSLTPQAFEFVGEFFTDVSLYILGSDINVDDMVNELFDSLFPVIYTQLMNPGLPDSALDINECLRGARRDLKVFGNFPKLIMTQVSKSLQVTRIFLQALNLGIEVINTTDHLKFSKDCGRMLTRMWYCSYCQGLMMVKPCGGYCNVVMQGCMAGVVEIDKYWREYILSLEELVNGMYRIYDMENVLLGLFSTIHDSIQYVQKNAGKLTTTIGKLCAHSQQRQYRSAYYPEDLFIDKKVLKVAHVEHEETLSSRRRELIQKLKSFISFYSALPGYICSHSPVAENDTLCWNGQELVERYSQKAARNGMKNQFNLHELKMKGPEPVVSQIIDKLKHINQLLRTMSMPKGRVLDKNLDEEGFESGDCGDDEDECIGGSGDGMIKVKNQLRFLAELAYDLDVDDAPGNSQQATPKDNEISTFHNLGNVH

| EC50 (read off the curve) (Human-GPC3-His [1]) [µg/mL] | EC50 (read off the curve) (Human-GPC3-His [2]) [µg/mL] | EC50 (read off the curve) (Human-GPC3-His [3]) [µg/mL] | EC50 (read off the curve) [4] [µg/mL] | Binder |
| --- | --- | --- | --- | --- |
| ~0.01 | ~0.03 | ~0.03 |  | GPC-3 and CD3 bispecial antibody (ERY974) (bispecific antibody, human IgG4 S228P, kappa, N297A, also called anti-CD3 epsilon and anti-GPC3 bispecific antibody) chain 1: QVQLVQSGAEVKKPGASVTVSCKASGYTFTDYEMHWIRQPPGEGLEWIGAIDGPTPDTAYSEKFKGRVTLTADKSTSTAYMELSSLTSEDTAVYYCTRFYSYTYWGQGTLVTVSSASTKGPSVFPLAPCSRSTSESTAALGCLVKDYFPEPVTVSWNSGALTSGVHTFPAVLQSSGLYSLSSVVTVPSSSLGTQTYTCNVDHKPSNTKVDKRVESKYGPPCPPCPAPEFRGGPKVFLFPPKPKDTLMISRTPEVTCVVVDVSQEDPEVQFNWYVDGVEVHNAKTKPREEQFASTYRVVSVLTVLHQDWLNGKEYKCKVSNKGLPSSIEKTISKAKGQPREPQVYTLPPSQEEMTKNQVSLTCLVKGFYPSDIAVEWESNGQPENNYKTTPPVLDSDGSFFLYSKLTVDKSRWQEGNVFSCSVMHEALHNHYTQESLSLSP chain 2: QVQLVESGGGVVQPGGSLRLSCAASGFTFSNAWMHWVRQAPGKGLEWVAQIKDKSQNYATYVAESVKGRFTISRADSKNSIYLQMNSLKTEDTAVYYCRYVHYAAGYGVDIWGQGTTVTVSSASTKGPSVFPLAPCSRSTSESTAALGCLVKDYFPEPVTVSWNSGALTSGVHTFPAVLQSSGLYSLSSVVTVPSSSLGTKTYTCNVDHKPSNTKVDKRVESKYGPPCPPCPAPEFRGGPKVFLFPPKPKDTLMISRTPEVTCVVVDVSQEDPEVQFNWYVDGVEVHNAKTKPREEQFASTYRVVSSLTVLHQDWLNGKEYKCKVSNKGLPSSIEKTISKAKGQPREPQVYTLPPSQKEMTKNQVSLTCLVKGFYPSDIAVEWESNGQPENNYKTTPPVLDSSGSFFLYSKLTVDKSRWQEGNVFSCSVMHEALHNHYTQKSLSLSP chain 3: DIVMTQSPLSLPVTPGEPASISCRSSQPLVHSNRNTYLHWYQQKPGQAPRLLIYKVSNRFSGVPDRFSGSGSGTDFTLKISRVEAEDVGVYYCGQGTQVPYTFGQGTKLEIKRTVAAPSVFIFPPSDEQLKSGTASVVCLLNNFYPREAKVQWKVDNALQSGNSQESVTEQDSKDSTYSLSSTLTLSKADYEKHKVYACEVTHQGLSSPVTKSFNRGEC |
|  | ~0.06 |  | ~0.04 | GN15-E (bispecific antibody, human IgG1, kappa, Trifunctional antibody against GPC-3 and NKP30 with IL-15 and IL-15Rα sushi between CH1 and CH2; also called constructed antibody GN15-E; multifunctional antibody) light 1: EVQLVESGGGLVQPGGSLRLSCAASGITFSRSVMGWFRQAPGKLRELVAGITSDDNTDYADSVKGRFTISRDNSKNTLYLQMNSLRAEDTAVYYCNILPDSRLGWGQGTLVTVSSGGGGSGGGGSGGGGSQVQLVQSGAEVKKPGASVKVSCKASGYTFTDYEMHWVRQAPGQGLEWMGALDPKTGDTAYSQKFKGRVTLTADKSTSTAYMELSSLTSEDTAVYYCTRFYSYTYWGQGTLVTVSSRTVAAPSVFIFPPSDEQLKSGTASVVCLLNNFYPREAKVQWKVDNALQSGNSQESVTEQDSKDSTYSLSSTLTLSKADYEKHKVYACEVTHQGLSSPVTKSFNRGEC heavy 1: not shown heavy 2: QVQLVQSGAEVKKPGASVKVSCKASGYTFTDYEMHWVRQAPGQGLEWMGALDPKTGDTAYSQKFKGRVTLTADKSTSTAYMELSSLTSEDTAVYYCTRFYSYTYWGQGTLVTVSSASTKGPSVFPLAPSSKSTSGGTAALGCLVKDYFPEPVTVSWNSGALTSGVHTFPAVLQSSGLYSLSSVVTVPSSSLGTQTYICNVNHKPSNTKVDKKVEPKSCDKTHTCPPCPGGGGSGGGGSPALLLLLLLRPPATRGITCPPPMSVEHADIWVKSYSLYSRERYICNSGFKRKAGTSSLTECVLNKATNVAHWTTPSLKCIRDPALVHQRPAPPSTVTTAGVTPQPESLSPSGKEGGGGSGGGGSAPELLGGPSVFLFPPKPKDTLMISRTPEVTCVVVDVSHEDPEVKFNWYVDGVEVHNAKTKPREEQYNSTYRVVSVLTVLHQDWLNGKEYKCKVSNKALPAPIEKTISKAKGQPREPQVYTLPPSRDELTKNQVSLTCLVKGFYPSDIAVEWESNGQPENNYKTTPPVLDSDGSFFLASKLTVDKSRWQQGNVFSCSVMHEALHNHYTQKSLSLSPGK light 2: DVVMTQSPLSLPVTPGEPASISCRSSQSLVHSNRNTYLHWYLQKPGQSPQLLIYKVSNRFSGVPDRFSGSGSGTDFTLKISRVEAEDVGVYYCSQNTHVPPTFGQGTKLEIKRTVAAPSVFIFPPSDEQLKSGTASVVCLLNNFYPREAKVQWKVDNALQSGNSQESVTEQDSKDSTYSLSSTLTLSKADYEKHKVYACEVTHQGLSSPVTKSFNRGEC |
|  | ~0.02 |  | ~0.03 | GN15-F (bispecific antibody, human IgG1, kappa, Trifunctional antibody against GPC-3 and NKP30 with IL-15 and IL-15Rα sushi between CH1 and CH2; also called constructed antibody GN15-F; multifunctional antibody) light: DVVMTQSPLSLPVTPGEPASISCRSSQSLVHSNRNTYLHWYLQKPGQSPQLLIYKVSNRFSGVPDRFSGSGSGTDFTLKISRVEAEDVGVYYCSQNTHVPPTFGQGTKLEIKRTVAAPSVFIFPPSDEQLKSGTASVVCLLNNFYPREAKVQWKVDNALQSGNSQESVTEQDSKDSTYSLSSTLTLSKADYEKHKVYACEVTHQGLSSPVTKSFNRGEC heavy 1: not shown heavy 2: QVQLVQSGAEVKKPGASVKVSCKASGYTFTDYEMHWVRQAPGQGLEWMGALDPKTGDTAYSQKFKGRVTLTADKSTSTAYMELSSLTSEDTAVYYCTRFYSYTYWGQGTLVTVSSASTKGPSVFPLAPSSKSTSGGTAALGCLVKDYFPEPVTVSWNSGALTSGVHTFPAVLQSSGLYSLSSVVTVPSSSLGTQTYICNVNHKPSNTKVDKKVEPKSCDKTHTCPPCPGGGGSGGGGSPALLLLLLLRPPATRGITCPPPMSVEHADIWVKSYSLYSRERYICNSGFKRKAGTSSLTECVLNKATNVAHWTTPSLKCIRDPALVHQRPAPPSTVTTAGVTPQPESLSPSGKEGGGGSGGGGSAPELLGGPSVFLFPPKPKDTLMISRTPEVTCVVVDVSHEDPEVKFNWYVDGVEVHNAKTKPREEQYNSTYRVVSVLTVLHQDWLNGKEYKCKVSNKALPAPIEKTISKAKGQPREPQVYTLPPSRDELTKNQVSLTCLVKGFYPSDIAVEWESNGQPENNYKTTPPVLDSDGSFFLASKLTVDKSRWQQGNVFSCSVMHEALHNHYTQKSLSLSPGK |
